Data as given in paper doi:10.1101/2023.05.09.539743 (bioRxiv, 2023).

Target: T1, His-ARS2^147-871 (human, UniProt Q9BXP5-4 147-871)
T1 sequence (looked up): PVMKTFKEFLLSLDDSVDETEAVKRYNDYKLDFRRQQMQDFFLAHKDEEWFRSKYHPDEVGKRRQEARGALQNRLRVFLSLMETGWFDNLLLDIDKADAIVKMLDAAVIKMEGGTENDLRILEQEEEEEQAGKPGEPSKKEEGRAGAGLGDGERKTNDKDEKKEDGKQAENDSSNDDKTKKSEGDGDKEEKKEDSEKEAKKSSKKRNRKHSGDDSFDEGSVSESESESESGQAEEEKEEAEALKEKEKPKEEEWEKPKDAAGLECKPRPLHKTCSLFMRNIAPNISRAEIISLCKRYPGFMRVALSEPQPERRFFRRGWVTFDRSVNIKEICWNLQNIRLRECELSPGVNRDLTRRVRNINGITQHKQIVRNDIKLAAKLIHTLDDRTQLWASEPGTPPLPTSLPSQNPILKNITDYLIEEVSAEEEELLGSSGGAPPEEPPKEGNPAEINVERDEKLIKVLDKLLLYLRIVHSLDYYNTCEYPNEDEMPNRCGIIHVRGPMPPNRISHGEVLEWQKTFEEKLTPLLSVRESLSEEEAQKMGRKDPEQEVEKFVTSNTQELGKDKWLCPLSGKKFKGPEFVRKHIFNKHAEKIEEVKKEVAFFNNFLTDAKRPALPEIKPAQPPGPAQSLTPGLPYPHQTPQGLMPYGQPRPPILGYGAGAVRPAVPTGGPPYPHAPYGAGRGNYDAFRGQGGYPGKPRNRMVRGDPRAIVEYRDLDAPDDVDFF
Assay: pull-down

binding result: binds
B1: His-MBP-Z1^11-35(WT) (domain or fragment, human, UniProt O60293 11-35, looked up)
chain: SSGLSPKEEGELEDGEISDDDNNSQ
